Test results reported in the supplement of paper PMC10126150.
± gives the standard deviation of the averaged measurements.

Test system: ATP
Test: switch fluorescence ratio, 500 uM ATP over buffer (Cy3 cluster intensity, sum of 5 cycles each) (fold (ratio)); higher = stronger signal-on switching upon ATP binding; sequences stand for … in TCGTCGGCAGCGTCAGATGTGTATAAGAGACAGTTTTTTTTTTTTTTTTTTTTTTTTT…TC
Conditions: aptamer strand: ATP DNA aptamer (quencher-CACCTGGGGGAGTATTGCGGAGGAAGG + anchor), 100 nM annealed; ATP concentration: 500 uM
How it was run: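 After annealing to 100 nM quencher-labelled ATP aptamer, Cy3-labelled switching-strand clusters on a modified Illumina MiSeq flow-cell were imaged in selection buffer. A second image followed after 15 min with 500 uM ATP at 22 °C, and five such buffer/ATP cycles were done, each separated by NaOH stripping and re-annealing. The fluorescence ratio, averaged per switch-domain sequence, is summed target-cycle over summed buffer-cycle Cy3 intensity per cluster, with clusters outside 100-1000 RFU excluded.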
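Further: ATP exposure 15 min at 22 °C before imaging.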

| Sequence | switch fluorescence ratio |
| --- | --- |
| ATGGTTGCAG | 0.9553 ± 0.004 |
| ATGGTTGGAC | 0.9925 ± 0.0094 |
| ATGGTTGGGG | 0.994 ± 0.031 |
| ATGGTTTGAG | 0.997 ± 0.026 |
| ATGGTTTTGC | 0.977 ± 0.029 |
| ATGGTTTTTG | 1.01 ± 0.013 |
| ATGTAAAAAC | 0.965 ± 0.029 |
| ATGTAAAATG | 1.04 ± 0.066 |
| ATGTAAAGTC | 1.018 ± 0.0031 |
| ATGTAAATTT | 1.01 ± 0.005 |
| ATGTACCGCG | 1.06 ± 0.016 |
| ATGTACGCGT | 0.995 ± 0.024 |
| ATGTAGTGGC | 0.995 ± 0.049 |
| ATGTATAAAG | 0.987 ± 0.03 |
| ATGTATAGAG | 1.03 ± 0.026 |
| ATGTATAGTT | 1.02 ± 0.017 |
| ATGTATCATA | 0.993 ± 0.025 |
| ATGTATGGGT | 0.992 ± 0.036 |
| ATGTATTCGA | 0.996 ± 0.027 |
| ATGTATTCGC | 0.983 ± 0.014 |
| ATGTATTGGT | 0.991 ± 0.026 |
| ATGTCAAAAG | 1 ± 0.022 |
| ATGTCAAGGA | 0.985 ± 0.042 |
| ATGTCAGTGT | 0.985 ± 0.074 |
| ATGTCCACTT | 1 ± 0.036 |

| Sequence | switch fluorescence ratio |
| --- | --- |
| ATGTCCTTAT | 0.988 ± 0.029 |
| ATGTCTTTGA | 1.03 ± 0.038 |
| ATGTGAATTG | 1.01 ± 0.019 |
| ATGTGAGCGG | 1.01 ± 0.038 |
| ATGTGCAGGG | 1.03 ± 0.013 |
| ATGTGGAGGG | 0.983 ± 0.033 |
| ATGTGGCTGA | 1.021 ± 0.0038 |
| ATGTGGGAGG | 1 ± 0.016 |
| ATGTGGGAGT | 0.979 ± 0.034 |
| ATGTGGGATA | 1.01 ± 0.063 |
| ATGTGGGATT | 0.965 ± 0.013 |
| ATGTGGGGCC | 0.995 ± 0.042 |
| ATGTGGTATG | 0.984 ± 0.031 |
| ATGTGTGAAT | 0.997 ± 0.015 |
| ATGTGTGGCT | 1.01 ± 0.022 |
| ATGTGTGTAT | 1.12 ± 0.2 |
| ATGTGTTAGC | 0.999 ± 0.058 |
| ATGTTACCGG | 1.054 ± 0.0038 |
| ATGTTACGTT | 1.02 ± 0.021 |
| ATGTTAGGAA | 1 ± 0.0065 |
| ATGTTATTGC | 1 ± 0.022 |
| ATGTTATTTG | 0.963 ± 0.022 |
| ATGTTATTTT | 1.013 ± 0.0049 |
| ATGTTGAAGC | 0.9619 ± 0.0078 |
| ATGTTGATCT | 0.983 ± 0.024 |

| Sequence | switch fluorescence ratio |
| --- | --- |
| ATGTTGGGCA | 1.01 ± 0.028 |
| ATGTTGGTAT | 1 ± 0.022 |
| ATGTTGTCGA | 1.01 ± 0.031 |
| ATGTTGTTGT | 0.981 ± 0.033 |
| ATGTTTAGAA | 0.9607 ± 0.0073 |
| ATGTTTTACG | 0.988 ± 0.049 |
| ATGTTTTAGA | 0.95 ± 0.015 |
| ATGTTTTGCT | 0.965 ± 0.029 |
| ATGTTTTTTT | 0.9915 ± 0.0073 |
| ATTAAACCGG | 0.997 ± 0.024 |
| ATTAAAGCGT | 1 ± 0.016 |
| ATTAAAGGAT | 0.995 ± 0.033 |
| ATTAAAGGGA | 1 ± 0.037 |
| ATTAAAGGGC | 0.992 ± 0.013 |
| ATTAAATAG | 0.9803 ± 0.0081 |
| ATTAAATTAG | 1.04 ± 0.051 |
| ATTAAGACAG | 0.973 ± 0.032 |
| ATTAAGGAGG | 0.99014 ± 0.00011 |
| ATTAAGGGTG | 1.04 ± 0.093 |
| ATTAAGGTAG | 1 ± 0.014 |
| ATTAAGGTCA | 1.064 ± 0.0069 |
| ATTAAGTGTG | 0.99638 ± 0.00091 |
| ATTAATATGT | 0.999 ± 0.023 |
| ATTAATCGAC | 1.03 ± 0.092 |
| ATTAATCTGA | 0.96 ± 0.029 |

| Sequence | switch fluorescence ratio |
| --- | --- |
| ATTAATTATC | 0.993 ± 0.031 |
| ATTAATTGTT | 0.993 ± 0.012 |
| ATTACAGGAC | 1.08 ± 0.012 |
| ATTACCGGGG | 1.05 ± 0.035 |
| ATTACGGGGG | 1.01 ± 0.088 |
| ATTACGTCCT | 1.03 ± 0.036 |
| ATTACTAAAT | 1.01 ± 0.02 |
| ATTACTAGGA | 1 ± 0.057 |
| ATTACTGGGG | 0.99 ± 0.019 |
| ATTAGAAATG | 0.9973 ± 0.0062 |
| ATTAGACTTG | 1.01 ± 0.065 |
| ATTAGCAGGC | 1.11 ± 0.012 |
| ATTAGCGTTT | 0.977 ± 0.066 |
| ATTAGGGGGG | 0.998 ± 0.012 |
| ATTAGGGGGT | 0.988 ± 0.036 |
| ATTAGGGTAA | 1.02 ± 0.026 |
| ATTAGGTATA | 0.9712 ± 0.0036 |
| ATTAGGTTCT | 0.97 ± 0.051 |
| ATTAGGTTGG | 0.987 ± 0.027 |
| ATTAGTAAAG | 0.9972 ± 0.0073 |
| ATTAGTCAAT | 1.0167 ± 0.0006 |
| ATTAGTGAGC | 1.03 ± 0.051 |
| ATTAGTGGCA | 0.982 ± 0.013 |
| ATTAGTTATT | 1.02 ± 0.015 |
| ATTAGTTTGA | 0.985 ± 0.014 |

| Sequence | switch fluorescence ratio |
| --- | --- |
| ATTATAAAGC | 1.03 ± 0.063 |
| ATTATATTGC | 1.01 ± 0.026 |
| ATTATCACGA | 0.989 ± 0.014 |
| ATTATCCGCT | 1.15 ± 0.014 |
| ATTATGCTG | 0.98 ± 0.05 |
| ATTATGCTGG | 0.994 ± 0.026 |
| ATTATGGGAT | 0.996 ± 0.029 |
| ATTATGGGGA | 0.995 ± 0.016 |
| ATTATGGTCA | 0.994 ± 0.023 |
| ATTATGTTGT | 0.981 ± 0.028 |
| ATTATTAACG | 0.993 ± 0.033 |
| ATTATTCGGT | 0.986 ± 0.013 |
| ATTATTGAGA | 1.036 ± 0.004 |
| ATTATTGGTA | 0.987 ± 0.012 |
| ATTATTGGTC | 0.99 ± 0.029 |
| ATTATTTGCC | 0.99 ± 0.01 |
| ATTCAATTTT | 0.996 ± 0.051 |
| ATTCACCGCG | 1.155 ± 0.0057 |
| ATTCACGGCC | 1.06 ± 0.043 |
| ATTCAGAAGG | 1.01 ± 0.041 |
| ATTCAGCATT | 1.05 ± 0.02 |
| ATTCATCGTA | 1.0012 ± 0.0006 |
| ATTCATGGGT | 0.998 ± 0.024 |
| ATTCATTTTT | 1.004 ± 0.01 |
| ATTCCTAGAT | 1.002 ± 0.0091 |

| Sequence | switch fluorescence ratio |
| --- | --- |
| ATTCCTAGTG | 1.03 ± 0.035 |
| ATTCCTTGTA | 0.989 ± 0.039 |
| ATTCGACAGA | 1.02 ± 0.016 |
| ATTCGATAGT | 1.03 ± 0.018 |
| ATTCGATATC | 1.03 ± 0.012 |
| ATTCGATTTC | 1 ± 0.033 |
| ATTCGCGGAA | 1.02 ± 0.029 |
| ATTCGTGTAT | 0.977 ± 0.04 |
| ATTCTACCGC | 1.49 ± 0.08 |
| ATTCTGGGAT | 1.013 ± 0.0027 |
| ATTCTGTGTG | 0.9648 ± 0.0023 |
| ATTCTGTTTG | 0.987 ± 0.043 |
| ATTCTTAGTA | 0.986 ± 0.03 |
| ATTCTTCCGC | 3.88 ± 0.16 |
| ATTGAAAAAC | 1.03 ± 0.022 |
| ATTGAAAGCA | 1.03 ± 0.025 |
| ATTGAAAGTG | 0.9859 ± 0.0074 |
| ATTGAAATGG | 1.02 ± 0.044 |
| ATTGAATGGC | 1.04 ± 0.068 |
| ATTGAATGTA | 0.98 ± 0.016 |
| ATTGAATTCT | 1.02 ± 0.14 |
| ATTGACTCAG | 1.01 ± 0.012 |
| ATTGAGAGCA | 0.985 ± 0.021 |
| ATTGAGCAAA | 1.11 ± 0.056 |
| ATTGAGCGGA | 1.0358 ± 0.001 |

| Sequence | switch fluorescence ratio |
| --- | --- |
| ATTGAGCGTG | 1.01 ± 0.015 |
| ATTGAGTCAC | 0.991 ± 0.016 |
| ATTGAGTTGT | 0.947 ± 0.066 |
| ATTGATAGGG | 1.03 ± 0.037 |
| ATTGATATTG | 0.979 ± 0.011 |
| ATTGATGTA | 1.0136 ± 0.00015 |
| ATTGATTGAA | 1.01 ± 0.012 |
| ATTGATTTAT | 0.987 ± 0.045 |
| ATTGATTTGT | 0.975 ± 0.018 |
| ATTGATTTTC | 0.999 ± 0.024 |
| ATTGCCCTTA | 1.06 ± 0.071 |
| ATTGCGCTTC | 1.063 ± 0.0095 |
| ATTGCGGCAC | 1.05 ± 0.024 |
| ATTGCGGGGG | 0.994 ± 0.019 |
| ATTGCGGGTT | 0.981 ± 0.013 |
| ATTGGACCAT | 0.976 ± 0.036 |
| ATTGGAGGGC | 0.96 ± 0.038 |
| ATTGGATGGG | 0.997 ± 0.057 |
| ATTGGATTTT | 1 ± 0.028 |
| ATTGGCACT | 1.03 ± 0.018 |
| ATTGGCGGTT | 1.09 ± 0.1 |
| ATTGGCTTT | 0.9788 ± 0.0025 |
| ATTGGCTTTA | 1.004 ± 0.0034 |
| ATTGGGAAAG | 1.02 ± 0.041 |
| ATTGGGCACC | 0.998 ± 0.048 |

| Sequence | switch fluorescence ratio |
| --- | --- |
| ATTGGGCGCT | 0.99269 ± 2.5e-05 |
| ATTGGGCTTC | 1.01 ± 0.015 |
| ATTGGGGCGG | 0.9842 ± 0.0054 |
| ATTGGGGGGT | 0.988 ± 0.015 |
| ATTGGGGTGC | 0.992 ± 0.013 |
| ATTGGGTATG | 0.998 ± 0.044 |
| ATTGGGTTAG | 0.975 ± 0.032 |
| ATTGGGTTTC | 0.982 ± 0.021 |
| ATTGGGTTTG | 1.01 ± 0.021 |
| ATTGGTAACC | 1.01 ± 0.039 |
| ATTGGTATGA | 0.994 ± 0.018 |
| ATTGGTGACG | 1.02 ± 0.047 |
| ATTGGTGATT | 0.974 ± 0.038 |
| ATTGGTGGAG | 1.007 ± 0.0033 |
| ATTGTAAGTG | 1.03 ± 0.088 |
| ATTGTACAGG | 1.033 ± 0.0021 |
| ATTGTAGACC | 1.0225 ± 0.00081 |
| ATTGTAGTGC | 0.97 ± 0.021 |
| ATTGTATAAA | 1.04 ± 0.056 |
| ATTGTATTTA | 0.9842 ± 0.0079 |
| ATTGTCATGG | 0.999 ± 0.028 |
| ATTGTCGCCG | 1.02 ± 0.043 |
| ATTGTCGTTC | 1.027 ± 0.0098 |
| ATTGTCTTGA | 0.9688 ± 0.0015 |
| ATTGTGAGAC | 0.986 ± 0.01 |
